Experimental data as given in patent publication US20060003399A1, “High throughput actin polymerization assay” (Cytokinetics, Inc., priority 2004, published 2006).
Entries after “also recorded” stand apart in the source; their conditions may differ. Blank lines part the entries; values can stand above or below the substance they belong to.

Key:
Arp2/3 = assay: Activities of WASP/N-WASP proteins (Table 4); format: biochemical
Description: The term “variant” or “analogue” generally refers to proteins that are functional equivalents to a native sequence that have similar amino acid sequences and retain, to some extent, one of the activities of the corresponding native protein. Variants/analogues include fragments that retain one or more activities of the corresponding native protein. Examples of WASP and N-WASP activity include, but are not limited to, capacity to: 1) bind Arp2/3 and actin; 2) activate the actin nucleation activity of Arp2/3 (descriptions of assays to detect nucleation activity are provided below); 3) bind an upstream regulator; 4) be regulated by one or more upstream regulators, thereby rendering the WASP or N-WASP protein able to activate the nucleation activity of Arp2/3; and 5) bind downstream regulators initiating signal transduction cascades. Some of the WASP and N-WASP proteins that are provided are able to recapitulate the full activity of WASP or N-WASP, which means that these proteins have all five of the activities just listed. […]
A third class of NPF proteins that can be utilized in some assays include WASP, N-WASP and SCAR proteins that include the WH1 domain but in which the PolyPro region is (e.g., deleted). A fourth class of NPF proteins that can be utilized in some assays are WASP, N-WASP and SCAR deletion mutants in which the PolyPro region is maintained but an N-terminal region (e.g., WH1 domain) is at least partially removed. Some proteins in this class are ones that include the B, CRIB/GBD (WASP and N-WASP), PolyPro and VCA domains, but in which some or all of the WH1 has been removed. One specific example is 98N-WASP, which includes amino acids 98-501 of SEQ ID NO:4. Another specific example is the 105WASP protein, which includes amino acids 105-501 of SEQ ID NO:2 (see FIG. 4B).
As indicated in this table, specific examples of fusion proteins that can be utilized include those that include a segment that encodes full-length WASP or N-WASP, including: Myc-WASP-TAP (SEQ ID NO:14); and Myc-N-WASP-TAP (SEQ ID NO: 16). Examples of fusion proteins that include a WASP or N-WASP deletion mutant domain include: GST-105WASP (SEQ ID NO:18); Myc-105WASP-TAP (SEQ ID NO:20); GST-tev-98N-WASP (SEQ ID NO:22); and Myc-98N-WASP-TAP (SEQ ID NO:24). The TAP tag in these particular fusion proteins has the general structure CBP-tev-ProtA (SEQ ID NO:36). Fusion proteins such as those listed in Table 4 can in some instances be utilized directly, or after one or both of the C- and N-terminal tags are removed. For example, the fusion proteins listed in Table 4 as having a TAP tag can be used once the TAP tag has been cleaved off and/or after the C-terminal tag has been removed.

full length human WASP = biological target: T1, full length human WASP (Homo sapiens, UniProt P42768); assay: Pyrene-actin polymerization assay: activation of full length WASP by upstream regulators; format: biochemical; conditions: for activation of FL-WASP (in words): Arp2/3 4.0 nM, actin 3.5 μM; for acceleration of actin polymerization by the activator: FL-WASP; for Barbed ends % of max.** (WASP): after subtracting baseline (WASP without activators); for Barbed ends, nM* (WASP): total concentration of Arp2/3 complex in the assay is 4.2 nM; for EC50: activation of WASP
T1 construct: Full length human WASP and N-WASP were TAP-tagged; Myc (N); made in house; host or cells: human 293 cells (Freestyle 293-F), transient transfection
T1 sequence (P42768 1-502): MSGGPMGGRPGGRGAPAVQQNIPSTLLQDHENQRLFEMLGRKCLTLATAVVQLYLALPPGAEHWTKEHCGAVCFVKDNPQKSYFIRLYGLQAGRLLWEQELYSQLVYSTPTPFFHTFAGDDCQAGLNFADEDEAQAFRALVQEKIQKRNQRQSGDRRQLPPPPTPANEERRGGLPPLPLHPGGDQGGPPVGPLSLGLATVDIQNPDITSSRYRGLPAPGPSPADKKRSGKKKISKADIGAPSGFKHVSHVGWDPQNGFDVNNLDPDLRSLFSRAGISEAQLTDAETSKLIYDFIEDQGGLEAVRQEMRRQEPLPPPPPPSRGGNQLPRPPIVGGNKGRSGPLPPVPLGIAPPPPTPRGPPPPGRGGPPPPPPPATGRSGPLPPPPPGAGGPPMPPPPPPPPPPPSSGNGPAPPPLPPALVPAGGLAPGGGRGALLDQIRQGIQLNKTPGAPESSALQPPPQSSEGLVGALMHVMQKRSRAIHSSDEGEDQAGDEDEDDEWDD
Method: (§1) Samples containing candidate agents (individually or as mixtures) are placed into wells on a multi-well plate. Mix 1 is added to each of the wells and mixed with the candidate agent. A sample of Mix 2 is then introduced into each well and the resulting mixture thoroughly mixed. Typically, Mix 1 and Mix 2 are mixed in 1:1 ratio (e.g., 50 μl each of Mix 1 and Mix 2).
(§2) Actin polymerization is measured as a function of time by exciting pyrene at 365 nm and by detecting an increase in fluorescence emission at 407 nm, or by exciting acrylodan at 405 nm and by detecting an increase in fluorescence emission at 460 nm. The change in fluorescence over time is utilized to determine a fluorescence parameter (e.g., maximal velocity, time to half maximal fluorescence intensity, or area under the curve of a plot of fluorescence versus time; see e.g., FIGS. 5A-5F).
(§3) Full length human WASP and N-WASP were TAP-tagged (Rigaut, et al. (1999) Nat. Biotechnology 17:1030, which is incorporated herein by reference in its entirety for all purposes) at the C-terminus (see, also Examples 2 and 3). The recombinant WASP and N-WASP were expressed in human 293 cells and then purified using a TAP-tag protocol as described in Example 6.
Arp2/3 was purified as described in Example 1. […]
The effect of PIP2 on the ability of upstream regulators to regulate FL-WASP was evaluated in a fifth set of experiments. The results are depicted in graphical format in FIG. 11.

full length human N-WASP = biological target: T2, full length human N-WASP (Homo sapiens, UniProt O00401); assay: Pyrene-actin polymerization assay: activation of full length N-WASP by upstream regulators; format: biochemical; conditions: for activation of FL-N-WASP (in words): Arp2/3 4.0 nM, actin 3.5 μM; for Barbed ends % of max.** (N-WASP): after subtracting baseline (WASP without activators); for Barbed ends, nM* (N-WASP): total concentration of Arp2/3 complex in the assay is 4.2 nM; for EC50: activation of N-WASP
T2 construct: Full length human WASP and N-WASP were TAP-tagged; Myc (N); made in house; host or cells: human 293 cells (Freestyle 293-F), transient transfection; insert amplified from HeLa total RNA
T2 sequence (O00401 whole entry Y76H/A201G/F223S/S242L/D248E/S252L/N296S/A333E): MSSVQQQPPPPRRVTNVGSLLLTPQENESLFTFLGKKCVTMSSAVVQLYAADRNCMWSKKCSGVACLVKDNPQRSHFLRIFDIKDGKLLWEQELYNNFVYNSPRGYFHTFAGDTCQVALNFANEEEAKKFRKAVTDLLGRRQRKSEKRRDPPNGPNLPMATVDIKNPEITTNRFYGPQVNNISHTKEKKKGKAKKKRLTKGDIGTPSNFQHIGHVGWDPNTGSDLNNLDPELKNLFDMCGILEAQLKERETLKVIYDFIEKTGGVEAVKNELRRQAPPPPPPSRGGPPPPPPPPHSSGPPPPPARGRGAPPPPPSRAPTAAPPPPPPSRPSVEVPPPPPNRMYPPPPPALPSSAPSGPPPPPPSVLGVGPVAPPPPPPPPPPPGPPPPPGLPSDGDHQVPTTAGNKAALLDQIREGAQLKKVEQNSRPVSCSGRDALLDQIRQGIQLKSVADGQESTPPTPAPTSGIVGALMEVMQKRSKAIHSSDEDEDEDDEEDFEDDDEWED
Method: as §1, §2, §3
(§4) Arp2/3 was purified as described in Example 1.
Arp2/3 and actin concentrations were as described for the third experiment.
Another set of experiments similar to the fifth set were conducted using FL-N-WASP.

Arp2/3 complex = biological target: T3, Arp2/3 complex; assay: Actin polymerization assay comparing FL-WASP/N-WASP and truncated forms of WASP; format: biochemical, human
T3 construct: from tissue
Method: 1. A cellular extract containing Arp2/3 complex was prepared from an Arp2/3 source such as human platelets (see, e.g., U.S. Provisional Application No. 60/578,969, filed Jun. 10, 2004; Welch and Mitchison (Meth. Enzymology 298:52-61,1988); and Higgs, H. N. et al. (Biochemistry 38:15212-15222, 1999), all of which are incorporated herein by reference in their entirety for all purposes).
as §1, §2, §4
In a second set of experiments, the ability of various truncated forms of WASP were compared to the activity of the full-length protein. […] FL-WASP, 105 WASP and the VCA (see Example 2) domain were tested. The results of these trials were plotted to obtain EC50 values. The results are provided in FIG. 8 and in the chart below.

[1] = Solubility of purified full-length WASP / N-WASP; format: physicochemical; conditions: purified TAP-tag protein from 293 cells

Substance: Myc-N-WASP-TAP: fusion protein of full-length N-WASP (SEQ ID NO:16)
Activate Arp2/3? (Arp2/3): Yes
Regulated By Which Upstream Regulators? (Arp2/3): Cdc42, PIP2, Nck and Rac1

activation of FL-WASP (in words) (full length human WASP; FIG. 9): could not activate
activation of FL-N-WASP (in words) (full length human N-WASP; FIG. 10): could not activate
Substance: RhoC: GTPase, GST-tev-RhoC (SEQ ID NO:28)

Substance: N-WASP VCA Domain: VCA domain of N-WASP (SEQ ID NO:8)
Activate Arp2/3? (Arp2/3): Yes
Regulated By Which Upstream Regulators? (Arp2/3): None

Substance: Myc-WASP-TAP: fusion protein of full-length WASP (SEQ ID NO:14)
Activate Arp2/3? (Arp2/3): Yes
Regulated By Which Upstream Regulators? (Arp2/3): Cdc42, PIP2, Nck and Rac1

activation of FL-WASP (in words) (full length human WASP; FIG. 9): could not activate
activation of FL-N-WASP (in words) (full length human N-WASP; FIG. 10): could not activate
Substance: RhoA: GTPase, GST-tev-RhoA (SEQ ID NO:30)

acceleration of actin polymerization by the activator (full length human WASP; FIG. 7): 13 fold
acceleration of actin polymerization by the activator (full length human WASP; FIG. 7 legend): 13 times
Barbed ends % of max.** (WASP) (full length human WASP): 87 % of max.
Barbed ends, nM* (WASP) (full length human WASP): 3.8 nM
EC50 (full length human WASP): 16 nM
acceleration of actin polymerization by the activator (full length human N-WASP; FL-N-WASP, FIG. 7 legend): 13 times
acceleration of actin polymerization by the activator (full length human N-WASP; N-WASP, FIG. 7): 13 fold
Barbed ends % of max.** (N-WASP) (full length human N-WASP; N-WASP): 9 % of max.
Barbed ends, nM* (N-WASP) (full length human N-WASP; N-WASP): 1.3 nM
EC50 (full length human N-WASP): 287 nM
Substance: Cdc42: Rho-family GTPase upstream regulator, GST-tagged (SEQ ID NO:26)
activation of FL-WASP (in words) (full length human WASP; FIG. 9): fully activates FL-WASP; also recorded: can fully activate FL-WASP
relative potency as WASP activator (in words) (full length human WASP; FIG. 9): more effective on WASP-stimulated actin nucleation by Arp2/3 complex than on N-WASP-stimulated actin nucleation

relative potency as WASP activator (in words) (full length human WASP; FIG. 9): most powerful activators
Barbed ends % of max.** (WASP) (full length human WASP): 50 % of max.
Barbed ends, nM* (WASP) (full length human WASP): 2.6 nM
EC50 (full length human WASP): 12 nM
Barbed ends % of max.** (N-WASP) (full length human N-WASP; N-WASP): 78 % of max.
Barbed ends, nM* (N-WASP) (full length human N-WASP; N-WASP): 3.5 nM
EC50 (full length human N-WASP): 7 nM
Substance: Nck2: upstream regulator, GST-tagged (SEQ ID NO:46)
dose dependence of WASP activation / barbed end concentration (in words) (full length human WASP; FIG. 9, inhibition at higher concentrations): bell shaped dependence; also recorded: inhibited
activation of FL-N-WASP (in words) (full length human N-WASP; FIG. 10): can stimulate production of maximal concentration of barbed ends
relative potency as N-WASP activator (in words) (full length human N-WASP; FIG. 10, Rac1 vs Cdc42 in the absence of PIP2 vesicles): significantly better activator of N-WASP than WASP; also recorded: most powerful activators
dose dependence of N-WASP activation (in words) (full length human N-WASP; FIG. 10, inhibition at higher concentrations): bell shaped dose dependence curve; also recorded: inhibited

Substance: FL-WASP: full length human WASP (SEQ ID NO:2), nucleation promoting factor
potency as Arp2/3 complex activator compared with truncated derivatives (in words) (Arp2/3 complex): more potent Arp2/3 complex activator than certain truncated derivatives
concentration that stimulated production of maximal concentration of barbed ends (Arp2/3 complex; 500 nM Cdc42, 2.5 nm Arp2/3 complex, 3.5 μM actin): 3 nM
activity of FL-WASP relative to 105 WASP (Arp2/3 complex; 500 nM Cdc42, 2.5 nm Arp2/3 complex, 3.5 μM actin, FIG. 8): approximately 20 times
stimulation of actin polymerization by the protein alone (in words) (Arp2/3 complex; without activators, FIG. 7): weakly stimulate actin polymerization
Activate Arp2/3? (Arp2/3): Yes
Regulated By Which Upstream Regulators? (Arp2/3): Cdc42, PIP2, Nck and Rac1
solubility (in words) [1]: completely soluble

effect of PIP2 on WASP stimulated actin polymerization (full length human WASP; in the presence of small GTPases or Nck, FIG. 11): strong inhibitory effect
Substance: phosphatidylinositol-4,5-bisphosphate [PIP2, reference compound]
effect of PIP2 on FL-WASP (full length human WASP; in the absence of small GTPases or Nck, FIG. 11): no effect; also recorded: minimal, if any, effect
effect of PIP2 on Nck stimulated activation of N-WASP (full length human N-WASP; Nck present, FIG. 12): inhibited; also recorded: inhibitory effect
effect of PIP2 on N-WASP activation by Rac1 or Cdc42 (full length human N-WASP; small GTPases present, FIG. 12): marked synergistic effect; also recorded: synergistically; also recorded: marked synergestic effect
